Laboratory results reported in patent US20170233472A1 (MacroGenics, published 2017).
Where a chain is given by its changes, count along the chain named. Names and notes keep the numbering of the source.

B1: DART-23 (bispecific antibody)
chain 1: QLVLTQSPSASASLGSSVKLTCTLSSGHKTDTIDWYQQQPGKAPRYLMKLEGSGSYNKGSGVPDRFGSGSSSGADWYLTISSLQSEDEADYYCGTDYPGNYLFGGGTQLTVLGGGGSGGGGEVQLVESGGGLVQPGGSLRLSCAASGFTFSTYAMNWVRQAPGKGLEWVGRIRSKYNNYATYYADSVKGRFTISRDDSKNSLYLQMNSLKTEDTAVYYCVRHGNFGNSYVSWFAYWGQGTLVTVSSGGCGGGKVAALKEKVAALKEKVAALKEKVAALKE
chain 2: QAVVTQEPSLTVSPGGTVTLTCRSSTGAVTTSNYANWVQQKPGQAPRGLIGGTNKRAPWTPARFSGSLLGGKAALTITGAQAEDEADYYCALWYSNLWVFGGGTKLTVLGGGGSGGGGQEQLVESGGGLVQPGGSLRLSCAASGFTFSDYYMSWVRQAPGKGLEWVATIYPSSGKTYYADSVKGRFTISSDNAKDSLYLQMNSLRAEDTAVYYCARDSYADDAALFDIWGQGTTVTVSSGGCGGGEVAALEKEVAALEKEVAALEKEVAALEK
B2: DART-25 (bispecific antibody)
chain 1: B1 chain 1
chain 2: B1 chain 2 with F186L, A215T
notes: ROR1×CD3 two chain diabody
B3: DART-2 (bispecific antibody)
chain 1: B1 chain 1
chain 2: B1 chain 2 with D195N
notes: ROR1×CD3 two chain diabody; VL(2): R71W; VH: parental
B4: DART-33 (bispecific antibody)
chain 1: QLVLTQSPSASASLGSSVKLTCTLSSGHKTDTIDWYQQQPGKAPRYLMKLEGSGSYNKGSGVPDRFSGSSSGADWYLTISSLQSEDEADYYCGTDYPGNYLFGGGTQLTVLGGGGSGGGGEVQLVESGGGLVQPGGSLRLSCAASGFTFSTYAMNWVRQAPGKGLEWVGRIRSKYNNYATYYADSVKGRFTISRDDSKNSLYLQMNSLKTEDTAVYYCVRHGNFGNSYVSWFAYWGQGTLVTVSSGGCGGGKVAALKEKVAALKEKVAALKEKVAALKE
chain 2: B1 chain 2 with V155I, V182A, F186L, A215T
notes: ROR1×CD3 two chain diabody
B5: DART-21 (bispecific antibody)
chain 1: B1 chain 1 with S70I, W76R
chain 2: B1 chain 2 with D195N, A215T
notes: ROR1×CD3 two chain diabody; VL(6): S66I; VH(3): A93T
B6: DART-3 (bispecific antibody)
chain 1: B1 chain 1 with K49N, W76R
chain 2: B1 chain 2 with D195N
notes: ROR1×CD3 two chain diabody; VL(3): K49N; VH: parental
B7: DART-22 (bispecific antibody)
chain 1: B1 chain 1
chain 2: B1 chain 2 with F186L, D195N
notes: ROR1×CD3 two chain diabody; VL(2): R71W; VH(1): F67L
B8: DART-30 (bispecific antibody)
chain 1: B1 chain 1 with S70I
chain 2: B1 chain 2 with F186L, A215T
notes: ROR1×CD3 two chain diabody; VL(12): S66I/R71W; VH(7): F67L N76D A93T
B9: DART-24 (bispecific antibody)
chain 1: B1 chain 1 with W76R, Y97N
chain 2: B1 chain 2 with D195N, A215T
notes: ROR1×CD3 two chain diabody; VL(10): Y92N; VH(3): A93T
B10: DART-4 (bispecific antibody)
chain 1: B1 chain 1 with S16G, W76R
chain 2: B1 chain 2 with D195N
notes: ROR1×CD3 two chain diabody; VL(4): S17G; VH: parental
B11: DART-12 (bispecific antibody)
chain 1: B1 chain 1 with S70I
chain 2: B1 chain 2 with D195N
notes: ROR1×CD3 two chain diabody; VL(12): S66I/R71W; VH: parental
B12: DART-17 (bispecific antibody)
chain 1: B1 chain 1 with W76R
chain 2: B1 chain 2 with D195Y
notes: ROR1×CD3 two chain diabody; VL: parental; VH(4): N76Y
B13: DART-27 (bispecific antibody)
chain 1: B1 chain 1 with S70I
chain 2: B1 chain 2 with D195N, A215T
notes: ROR1×CD3 two chain diabody; VL(12): S66I R71W; VH(3): A93T
B14: DART-10 (bispecific antibody)
chain 1: B1 chain 1 with W76R, Y97N
chain 2: B1 chain 2 with D195N
notes: ROR1×CD3 two chain diabody; VL(10): Y92N; VH: parental
B15: DART-13 (bispecific antibody)
chain 1: B1 chain 1 with S70I, Y97N
chain 2: B1 chain 2 with D195N
notes: ROR1×CD3 two chain diabody; VL(13): S66I/R71W/Y92N; VH: parental
B16: DART-29 (bispecific antibody)
chain 1: B1 chain 1 with Y97N
chain 2: B1 chain 2 with F186L, A215T
notes: ROR1×CD3 two chain diabody; VL(11): R71W/Y92N; VH(7): F67L/N76D/A93T
B17: DART-5 (bispecific antibody)
chain 1: B1 chain 1 with N57S, W76R
chain 2: B1 chain 2 with D195N
notes: ROR1×CD3 two chain diabody; VL(5): N54S; VH: parental
B18: DART-28 (bispecific antibody)
chain 1: B1 chain 1 with S70I, Y97N
chain 2: B1 chain 2 with D195N, A215T
notes: ROR1×CD3 two chain diabody; VL(13): S66I/R71W/Y92N; VH(3): A93T
B19: DART-31 (bispecific antibody)
chain 1: B1 chain 1 with S70I, Y97N
chain 2: B1 chain 2 with F186L, A215T
notes: ROR1×CD3 two chain diabody; VL(13): S66I/R71W/Y92N; VH(7): F67L/N76D/A93T
B20: DART-20 (bispecific antibody)
chain 1: B1 chain 1
chain 2: B1 chain 2 with D195N, A215T
notes: ROR1×CD3 two chain diabody; VL(2): R71W; VH(3): A93T
B21: DART-14 (bispecific antibody)
chain 1: B1 chain 1 with W76R
chain 2: B1 chain 2 with F186L, D195N
notes: ROR1×CD3 two chain diabody; VL: parental; VH(1): F67L
B22: DART-16 (bispecific antibody)
chain 1: B1 chain 1 with W76R
chain 2: B1 chain 2 with D195N, A215T
notes: ROR1×CD3 two chain diabody; VL: parental; VH(3): A93T
B23: DART-26 (bispecific antibody)
chain 1: B1 chain 1 with Y97N
chain 2: B1 chain 2 with D195N, A215T
notes: ROR1×CD3 two chain diabody; VL(11): R71W/Y92N; VH(3): A93T
B24: DART-11 (bispecific antibody)
chain 1: B1 chain 1 with Y97N
chain 2: B1 chain 2 with D195N
notes: ROR1×CD3 two chain diabody; VL(11): R71W/Y92N; VH: parental
B25: DART-6 (bispecific antibody)
chain 1: B1 chain 1 with S70I, W76R
chain 2: B1 chain 2 with D195N
notes: ROR1×CD3 two chain diabody; VL(6): S66I; VH: parental
B26: TRIDENT-C (other)
chain 1: QLVLTQSPSASASLGSSVKLTCTLSSGHKTDTIDWYQQQPGKAPRYLMKLEGSGSYNKGSGVPDRFSGSSSGADWYLTISSLQSEDEADYYCGTDYPGNYLFGGGTQLTVLGGGGSGGGGEVQLVESGGGLVQPGGSLRLSCAASGFTFSTYAMNWVRQAPGKGLEWVGRIRSKYNNYATYYADSVKGRFTISRDDSKNSLYLQMNSLKTEDTAVYYCVRHGNFGNSYVSWFAYWGQGTLVTVSSASTKGEVAACEKEVAALEKEVAALEKEVAALEKGGGDKTHTCPPCPAPEAAGGPSVFLFPPKPKDTLMISRTPEVTCVVVDVSHEDPEVKFNWYVDGVEVHNAKTKPREEQYNSTYRVVSVLTVLHQDWLNGKEYKCKVSNKALPAPIEKTISKAKGQPREPQVYTLPPSREEMTKNQVSLWCLVKGFYPSDIAVEWESNGQPENNYKTTPPVLDSDGSFFLYSKLTVDKSRWQQGNVFSCSVMHEALHNHYTQKSLSLSPGK
chain 2: QAVVTQEPSLTVSPGGTVTLTCRSSTGAVTTSNYANWVQQKPGQAPRGLIGGTNKRAPWTPARFSGSLLGGKAALTITGAQAEDEADYYCALWYSNLWVFGGGTKLTVLGGGGSGGGGQEQLVESGGGLVQPGGSLRLSCAASGFTFSDYYMSWIRQAPGKGLEWVATIYPSSGKTYYADSAKGRLTISSDNAKDSLYLQMNSLRAEDTAVYYCTRDSYADDAALFDIWGQGTTVTVSSASTKGKVAACKEKVAALKEKVAALKEKVAALKE
chain 3: DIQMTQSPSSLSASVGDRVTITCKGSQDINNYLAWYQQKPGKAPKLLIYNTDILHTGVPSRFSGSGSGTDFTFTISSLQPEDIATYYCYQYNNGYTFGCGTKVEIKGGGGSGGGGSGGGGSQVQLVESGGGVVQPGRSLRLSCAASGFTFSDFGMNWVRQAPGKCLEWVALIYYDGSNKFYADSVKGRFTISRDNSKNTLYLQMNSLRAEDTAVYYCAKPHYDGYYHFFDSWGQGTLVTVSSVEPKSADKTHTCPPCPAPEAAGGPSVFLFPPKPKDTLMISRTPEVTCVVVDVSHEDPEVKFNWYVDGVEVHNAKTKPREEQYNSTYRVVSVLTVLHQDWLNGKEYKCKVSNKALPAPIEKTISKAKGQPREPQVYTLPPSREEMTKNQVSLSCAVKGFYPSDIAVEWESNGQPENNYKTTPPVLDSDGSFFLVSKLTVDKSRWQQGNVFSCSVMHEALHNRYTQKSLSLSPGK
notes: anti-ROR1-VL(14) and VH(8)
B27: TRIDENT-D (other)
chain 1: B26 chain 1
chain 2: B26 chain 2
heavy: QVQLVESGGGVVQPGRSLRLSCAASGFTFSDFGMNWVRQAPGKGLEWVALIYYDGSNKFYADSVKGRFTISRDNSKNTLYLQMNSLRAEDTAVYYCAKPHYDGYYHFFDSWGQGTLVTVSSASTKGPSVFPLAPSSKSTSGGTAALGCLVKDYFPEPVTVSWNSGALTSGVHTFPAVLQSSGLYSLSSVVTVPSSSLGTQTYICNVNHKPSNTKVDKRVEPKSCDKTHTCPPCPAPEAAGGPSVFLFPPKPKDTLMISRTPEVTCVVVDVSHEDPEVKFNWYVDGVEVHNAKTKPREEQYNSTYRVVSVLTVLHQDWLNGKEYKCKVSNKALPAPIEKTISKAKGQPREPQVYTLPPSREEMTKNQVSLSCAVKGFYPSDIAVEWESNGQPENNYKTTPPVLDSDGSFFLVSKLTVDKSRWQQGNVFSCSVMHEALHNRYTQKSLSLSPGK
light: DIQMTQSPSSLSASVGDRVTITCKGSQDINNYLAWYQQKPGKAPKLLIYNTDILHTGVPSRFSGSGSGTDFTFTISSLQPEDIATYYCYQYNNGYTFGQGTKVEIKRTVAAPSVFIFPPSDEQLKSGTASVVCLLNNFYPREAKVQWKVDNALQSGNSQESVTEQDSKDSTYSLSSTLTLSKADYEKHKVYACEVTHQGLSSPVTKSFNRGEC

Each binder was assayed against human ROR1 expressed on the surface of cancer cells (human, UniProt Q01973 30-937) (assay: cell-based or functional assay).
human ROR1 expressed on the surface of cancer cells, sequence (Q01973 30-937): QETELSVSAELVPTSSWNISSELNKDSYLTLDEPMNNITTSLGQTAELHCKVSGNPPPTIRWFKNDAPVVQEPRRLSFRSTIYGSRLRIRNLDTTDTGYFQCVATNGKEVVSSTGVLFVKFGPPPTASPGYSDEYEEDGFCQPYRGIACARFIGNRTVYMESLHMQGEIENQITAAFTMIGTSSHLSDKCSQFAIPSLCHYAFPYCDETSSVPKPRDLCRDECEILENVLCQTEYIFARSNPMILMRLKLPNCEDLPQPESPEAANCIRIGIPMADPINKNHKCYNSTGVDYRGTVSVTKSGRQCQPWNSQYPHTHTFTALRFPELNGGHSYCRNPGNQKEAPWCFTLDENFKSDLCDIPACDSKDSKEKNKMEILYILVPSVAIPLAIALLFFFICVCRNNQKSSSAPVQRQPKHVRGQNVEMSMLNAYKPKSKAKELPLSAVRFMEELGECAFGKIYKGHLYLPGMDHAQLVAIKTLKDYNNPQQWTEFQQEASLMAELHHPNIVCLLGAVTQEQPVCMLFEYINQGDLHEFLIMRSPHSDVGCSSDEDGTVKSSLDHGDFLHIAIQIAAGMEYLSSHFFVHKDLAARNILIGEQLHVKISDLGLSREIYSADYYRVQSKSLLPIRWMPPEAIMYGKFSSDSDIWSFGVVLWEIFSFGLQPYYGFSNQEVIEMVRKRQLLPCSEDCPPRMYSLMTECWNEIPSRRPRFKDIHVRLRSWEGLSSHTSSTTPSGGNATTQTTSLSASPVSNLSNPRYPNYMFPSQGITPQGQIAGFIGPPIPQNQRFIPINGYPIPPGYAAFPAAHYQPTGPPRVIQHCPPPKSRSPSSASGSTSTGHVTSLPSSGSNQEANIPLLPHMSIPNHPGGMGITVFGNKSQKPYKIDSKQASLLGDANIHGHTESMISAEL

Going from B1 to B2, the “MR(%) (maximum response), redirected cell killing of HBL-2 cells (LDH release)” value rises from 25.6% to 27%.

Compared with B1, B2 is higher in “MR(%) (maximum response), redirected cell killing of JIMT-1 cells (LDH release)” value: 37.3% for the first, 40% for the second.

Compared with B1, B2 is higher in “MR(%) (maximum response), redirected cell killing of Jeko-1 cells (LDH release)” value: 36.4% for the first, 38.2% for the second.

What follows are binders tested against T1, His-tagged soluble human ROR1 (shROR1-His) (human, UniProt Q01973 30-406) (assay: SPR (Biacore), diabody captured via anti-E/K-coil, shROR1-His as analyte).
T1 construct: also called ROR1 protein; immobilized ROR1; not shown: His-Tag
Protocol: The binding kinetics of DART-1 to DART-6, DART-10 to DART-17, DART-20 to DART-33 was investigated using Biacore analysis in which ROR1 protein was passed over immobilized diabodies. Briefly, each diabody construct was captured on immobilized anti-E/K-coil surface and was incubated with shROR1-His at 25 and 100 nM, and the kinetics of binding were determined via Biacore analysis.

T1 sequence (Q01973 30-406): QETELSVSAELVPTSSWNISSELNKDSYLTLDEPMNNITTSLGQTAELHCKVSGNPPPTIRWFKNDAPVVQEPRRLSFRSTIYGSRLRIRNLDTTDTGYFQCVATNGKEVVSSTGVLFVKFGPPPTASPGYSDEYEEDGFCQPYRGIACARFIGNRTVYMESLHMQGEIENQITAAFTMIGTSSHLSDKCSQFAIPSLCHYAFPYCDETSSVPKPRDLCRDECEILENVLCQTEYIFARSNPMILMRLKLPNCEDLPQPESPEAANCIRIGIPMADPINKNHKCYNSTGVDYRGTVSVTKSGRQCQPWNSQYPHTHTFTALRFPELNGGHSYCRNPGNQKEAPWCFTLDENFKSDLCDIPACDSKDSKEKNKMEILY

B3 and B4 are within 1.5-fold of each other in Kd: 1.5 nM for the first, 1.3 nM for the second.

B5 and B6 are within 1.5-fold of each other in Kd: 4.8 nM for the first, 4 nM for the second.

B7 and B8 are within 1.5-fold of each other in Kd: 1.3 nM for the first, 1.2 nM for the second.

Compared with B9, B10 is 1.5-fold higher in Kd: 2.4 nM for the first, 3.7 nM for the second. The first binds more tightly here.

Going from B11 to B12, the Kd rises from 1.7 nM to 3.7 nM (2.2-fold). The first binds more tightly here.

Compared with B13, B14 is 2.3-fold higher in Kd: 1.2 nM for the first, 2.7 nM for the second.

B15 and B16 are within 1.5-fold of each other in Kd: 1.4 nM for the first, 1.3 nM for the second.

Compared with B17, B18 is 4-fold lower in Kd: 6 nM for the first, 1.5 nM for the second.

B19 and B20 are within 1.5-fold of each other in Kd: 0.9 nM for the first, 1.3 nM for the second.

B21 and B22 are within 1.5-fold of each other in Kd: 4.5 nM for the first, 4.3 nM for the second.

B2 and B23 are the same in Kd: 1.2 nM for the first, 1.2 nM for the second.

Compared with B24, B25 is 4.8-fold higher in Kd: 1.2 nM for the first, 5.7 nM for the second.

B3 was tested, and the “fold enhancement of binding relative to DART-1” value was over 2 fold.

The binders below were run against T1, His-tagged soluble human ROR1 … (assay: SPR (BIACORE), trivalent binding molecule 6.25 to 100 nM passed over immobilized shROR1-His).
Protocol: The binding kinetics of each of the ROR1×CD3×CD8 trivalent binding molecules to ROR1 was investigated using BIACORE® analysis in which each trivalent binding molecule (6.25 to 100 nM) was passed over immobilized shROR1-His essentially as described above.

B26 and B27 are within 1.5-fold of each other in Kd: 0.19 nM for the first, 0.26 nM for the second.
